Results as given in publication PMC9471973 (Computational and Structural Biotechnology Journal, 2022).
No end group written: not given here.

Legend:
cross-linking [1] = target: the molecule itself; assay: cross-linking
cross-linking [2] = target: the molecule itself; assay: cross-linking; remark: listed apart in the source
crystal structure = target: the molecule itself; assay: crystal structure

Protein | stoichiometry N (cross-linking [1]) | further results
truncated mouse TRIM75 protein (136-467) containing the coiled coil and C-terminal domains, N-terminal FLAG tag (domain or fragment, UniProt Q3UWZ0 136-467, looked up) SLHRKHLQDYSKLLKWEVKEIQGLMSALNKRTVTLREQAEAQRSQLTSECEKLMRFLDQEERAAFSRLEDEEMRLEKRLLDNIAALEHHGSSLRDLLRHLMLTGELSEAKMLSTVKDFYLNCRRQLISPSIFPVQLRRVEYSFPLQYSALQKVIQHFTDNVTLDLKTAHPNLLISKDRTCVTFTKKRQRIPGSSSFTKSPVVLGIPHFNSGRHFWEVQVGKKPKWAIGICKADSSIGERQSPNPWGYWRIVWQGDSFNVSGADPDSRLKAARATSIGVFLDYELGEVSFYGMPEKCHLYTFRDTFSGPVCPYFYIGPQSEPLRLCSATDSEC | 4 | 
full-length mouse TRIM75 with N-terminal FLAG tag (natural protein, UniProt Q3UWZ0 1-467, looked up) MAHVEVLARLQKETKCPICLDDLTDPVTVECGHNFCRSCIKDFWAGQQATSSCPVCRHQCQHRNLRSNAQLGNMIETAQLLQGMENKRHESSTSCERHNQALTLFCEDDLQLLCDQCVEPESHGRHQVLSITEAASLHRKHLQDYSKLLKWEVKEIQGLMSALNKRTVTLREQAEAQRSQLTSECEKLMRFLDQEERAAFSRLEDEEMRLEKRLLDNIAALEHHGSSLRDLLRHLMLTGELSEAKMLSTVKDFYLNCRRQLISPSIFPVQLRRVEYSFPLQYSALQKVIQHFTDNVTLDLKTAHPNLLISKDRTCVTFTKKRQRIPGSSSFTKSPVVLGIPHFNSGRHFWEVQVGKKPKWAIGICKADSSIGERQSPNPWGYWRIVWQGDSFNVSGADPDSRLKAARATSIGVFLDYELGEVSFYGMPEKCHLYTFRDTFSGPVCPYFYIGPQSEPLRLCSATDSEC | 4 | 
mouse TRIM75 coiled-coil domain with the CCm9A mutation (domain or fragment, UniProt Q3UWZ0 168-222, looked up) VTLREQAEAAASQATSEAEKAMRAADQEARAAFSRAEDEEMRLEKRLLDNIAALE |  | stoichiometry N (cross-linking [2]): 2
mouse TRIM75 coiled-coil domain (residues 168-222) (domain or fragment, UniProt Q3UWZ0 168-222, looked up, also: homodimer: interchain disulfide between C185 of two chains) VTLREQAEAQRSQLTSECEKLMRFLDQEERAAFSRLEDEEMRLEKRLLDNIAALE |  | stoichiometry N (crystal structure): 4
